According to patent publication US6183121:
pKd: −log10 of the molar value.

Experiments:
[1] = biological target: HCV NS3 full-length (wild type) (Hepatitis C virus) (UniProt P26664)
[2] = biological target: HCV NS3 helicase domain (wild type) (Hepatitis C virus) (UniProt P26664); conditions: requires ATP and Mn2+ or Mg2+; 25 mM MOPS pH 6.5, 1 mM ATP, 0.5 mM MnCl2, 37 C
[3] = biological target: HCV NS3 full-length (wild type) (Hepatitis C virus) (UniProt P26664); test: filter; conditions: reference
[4] = biological target: HCV NS3 helicase domain (wild type) (Hepatitis C virus) (UniProt P26664); test: filter; conditions: 25 mM MOPS pH 7.0, 2 mM DTT, 30 C; 0.445 RNA per helicase molecule; koff 1.52e-2 min-1
[5] = biological target: HCV NS3 helicase domain (wild type) (Hepatitis C virus) (UniProt P26664); conditions: poly(U)-stimulated ATPase; 50 mM MOPS pH 7.0, 0.5 mM MgCl2, 37 C

For “3'-tailed 98-nt RNA / 34-nt DNA hybrid (pSP65 BsrBI transcript; pSP64 release strand)”, the activity (% of WT unwinding) ([1]; reference) was 100 and the activity (% of WT unwinding) [2] was 100.

For “34-nt ssRNA (SP6 transcript of BamHI-digested pSP64)”, the binding signal [3] was 100 % of WT and the pKd [4] was 8.29.

poly(U) gave an activity (% of basal WT ATPase) [5] of 823 and an activity (% of basal WT ATPase) ([1]; poly(U)-stimulated ATPase) of 581.
